Assay results: patent US20200368361A1

Legend:
[1] = biological target: His9-hMSR1, human MSR1 extracellular domain with an N-terminal 9-Histidine tag (human) (UniProt P21757); experiment: competition ELISA on coated His9-hMSR1; competitor Ac-LDL; antibody 100 nM
[2] = biological target: His9-hMSR1, human MSR1 extracellular domain with an N-terminal 9-Histidine tag (human) (UniProt P21757); experiment: competition ELISA on coated His9-hMSR1; competitor Ox-LDL 10 nM; antibody 1 µM
[3] = biological target: His9-hMSR1, human MSR1 extracellular domain with an N-terminal 9-Histidine tag (human) (UniProt P21757); experiment: competition ELISA on coated His9-hMSR1; competitor biot-AGE-BSA; antibody 300 nM
[4] = biological target: human MSR1 endogenously expressed on PMA-differentiated THP-1 cells (human) (UniProt P21757); experiment: cell-based or functional assay
Chain of human MSR1 endogenously expressed on PMA-differentiated THP-1 cells (human) (P21757 whole entry): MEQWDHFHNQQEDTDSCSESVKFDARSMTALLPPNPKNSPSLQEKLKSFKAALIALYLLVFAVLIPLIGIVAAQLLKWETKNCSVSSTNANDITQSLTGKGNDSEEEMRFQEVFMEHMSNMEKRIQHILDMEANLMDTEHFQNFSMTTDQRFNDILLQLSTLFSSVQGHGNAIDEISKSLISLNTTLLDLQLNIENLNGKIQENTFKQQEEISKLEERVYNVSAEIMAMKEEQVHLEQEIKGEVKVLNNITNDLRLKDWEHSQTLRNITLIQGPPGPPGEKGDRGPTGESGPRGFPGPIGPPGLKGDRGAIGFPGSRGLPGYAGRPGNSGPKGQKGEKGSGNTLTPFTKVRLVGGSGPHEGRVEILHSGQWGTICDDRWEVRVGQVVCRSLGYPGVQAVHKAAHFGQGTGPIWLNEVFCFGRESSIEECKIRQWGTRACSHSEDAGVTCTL

[5] = biological target: human MSR1 endogenously expressed on PMA-differentiated THP-1 cells (human) (UniProt P21757); experiment: imaging of PMA-differentiated THP-1 cells, 10 ug/mL antibody, Alexa 488 secondary
[6] = biological target: full length human MSR1 with a C-terminal Myc tag on HEK293.Myc.hMSR1 cells (human) (UniProt P21757); experiment: ECL cell binding, HEK293.Myc.hMSR1
Chain of full length human MSR1 with a C-terminal Myc tag on HEK293.Myc.hMSR1 cells (human) (P21757 whole entry): as above

[7] = biological target: endogenously expressed human MSR1 on PMA-treated THP-1 cells (human) (UniProt P21757); experiment: ECL cell binding, PMA-treated THP-1
Chain of endogenously expressed human MSR1 on PMA-treated THP-1 cells (human) (P21757 whole entry): as above

[8] = biological target: full length monkey MSR1 on HEK293.mfMSR1 cells (Macaca fascicularis); experiment: ECL cell binding, HEK293.mfMSR1
Chain of full length monkey MSR1 on HEK293.mfMSR1 cells (Macaca fascicularis) (chain, as listed by the source): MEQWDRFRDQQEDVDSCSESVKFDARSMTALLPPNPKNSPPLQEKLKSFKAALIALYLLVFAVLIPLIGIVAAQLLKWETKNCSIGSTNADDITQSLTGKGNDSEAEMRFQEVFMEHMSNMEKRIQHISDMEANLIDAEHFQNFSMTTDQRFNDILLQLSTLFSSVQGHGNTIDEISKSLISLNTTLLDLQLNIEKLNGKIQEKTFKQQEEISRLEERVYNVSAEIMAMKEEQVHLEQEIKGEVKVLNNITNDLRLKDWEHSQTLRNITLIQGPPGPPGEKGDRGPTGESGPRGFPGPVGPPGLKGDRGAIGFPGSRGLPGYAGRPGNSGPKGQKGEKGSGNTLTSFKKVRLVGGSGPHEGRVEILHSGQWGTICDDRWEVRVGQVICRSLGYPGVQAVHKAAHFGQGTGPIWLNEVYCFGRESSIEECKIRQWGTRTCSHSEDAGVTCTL

Chain of His9-hMSR1, human MSR1 extracellular domain with an N-terminal 9-Histidine tag (human) (P21757 other isoform, or with tags, fused parts or gaps): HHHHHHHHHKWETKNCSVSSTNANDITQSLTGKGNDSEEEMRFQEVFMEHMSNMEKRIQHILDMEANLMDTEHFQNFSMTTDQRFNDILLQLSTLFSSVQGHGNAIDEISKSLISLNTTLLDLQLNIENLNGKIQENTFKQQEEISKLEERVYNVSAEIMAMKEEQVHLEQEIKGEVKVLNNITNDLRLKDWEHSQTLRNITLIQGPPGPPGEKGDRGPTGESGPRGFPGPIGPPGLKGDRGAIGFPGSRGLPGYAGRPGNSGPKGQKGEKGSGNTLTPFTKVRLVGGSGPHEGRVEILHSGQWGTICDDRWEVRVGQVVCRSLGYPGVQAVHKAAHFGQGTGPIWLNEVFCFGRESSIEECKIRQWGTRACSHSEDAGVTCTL

Substance	% Blocking [1]	% Blocking [2]	% Blocking [3]	binding signal ratio to isotype control (11 nM) [6]	binding signal ratio to isotype control (11 nM) [7]	binding signal ratio to isotype control (11 nM) [8]	further results
hIgG1 isotype control (competition ELISA of Table 20) (antibody)	-8%	3%	4%	–	–	–	–
Isotype control (internalization assay of Table 19) (antibody)	–	–	–	–	–	–	Total Internalized RFU [4]: 1.7e+06 RFU; Total Binding at 4° C. [5]: 186000 RFU; Total Binding at 37° C. [5]: 1.09e+06 RFU
mIgG1 isotype control (competition ELISA of Table 20) (antibody)	-4%	16%	7%	–	–	–	–

Now from value to substance, other results behind:

% Blocking [1]	% Blocking [2]	% Blocking [3]	binding signal ratio to isotype control (11 nM) [6]	binding signal ratio to isotype control (11 nM) [7]	binding signal ratio to isotype control (11 nM) [8]	Substance	further results
–	–	–	1 fold	1 fold	1 fold	hIgG1 Isotype Control (antibody)	–
–	–	–	1 fold	1 fold	1 fold	mIgG Isotype Control (antibody)	–
